Biological target: T1, NAC CoV2 Mosaic (SARS-COV-2)
T1 construct: also called NAC Mosaic (The Native Antigen Company)
Assay: ForteBio

B1: SC2 antibody 3396 (antibody, V domains shown)
VH: GVQLVESGGGLVQPGRSLRVSCAASGFTFADYAMHWVRQAPGKGLEWVSGISWNSGNIAYADSVKGRFTISRDNAKNSLYLQMDSLRPDDTALYYCVKASTLYYYFYMDVWGKGTTVTVSS
VL: QSALTQPPSASGSPGQSVTISCTGTSSDVGGYDYVSWYQQHPGKAPKFMIYEVSKRPSGVPDRFSGSKSGNTASLTVSGLQAEDEADYYCCSYAGSNNYVFGTGTKVTVLG
notes: also called Anti-SARS-COV-2 antibody 3396
  Kd: 21 nM
